Measured values reported in paper PMC9127371, “Assembly of nuclear dimers of PI3K regulatory subunits is regulated by the Cdc42-activated tyrosine kinase ACK” (The Journal of Biological Chemistry, 2022).
Square brackets hold non-standard residues; d marks the D form. Ends that are not written are not given here. * marks the point of attachment. 5FAM = O=C1OC2(c3ccc(O)cc3Oc3cc(O)ccc32)c2ccc(C(=O)*)cc21; pY = N[C@@H](Cc1ccc(OP(=O)(O)O)cc1)C(=O)O

T1: p85β cSH2 (603–712) (mouse, UniProt O08908 603-712)
T1 construct: PI3K regulatory subunit p85β, mouse, C-terminal SH2 domain, residues 603-712; also called cSH2 domain of p85β; source: E. coli, purified (glutathione-agarose, HRV 3C cleavage, S75 size exclusion)
T1 sequence (looked up): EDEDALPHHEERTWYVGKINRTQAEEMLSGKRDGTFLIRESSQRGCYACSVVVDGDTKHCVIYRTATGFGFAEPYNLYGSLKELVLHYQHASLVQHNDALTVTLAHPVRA

B1: [5-FAM]-TEDQ-[pY]-SLVEDE, phosphorylated peptide based on p85α (peptide)
peptide: 5FAM-TEDQ[pY]SLVEDE
notes: also called α peptide; p85α (pYSLV) peptide; source: synthetic peptide; bought: Biomatik
B2: [5-FAM]-TEDQ-[pY]-SLMEDE, phosphorylated peptide based on p85β (peptide)
peptide: 5FAM-TEDQ[pY]SLMEDE
notes: also called β peptide; p85β (pYSLM) peptide; source: synthetic peptide; bought: Cambridge Research Biochemicals
B3: [5-FAM]-SD-[pY]-MNMTP, CD28 peptide (peptide)
peptide: 5FAM-SD[pY]MNMTP
notes: Known p85 SH2 target peptide from CD28; also called control peptide from CD28; source: synthetic peptide; bought: Biomatik

Columns and labels:
Assay in all cases: fluorescence polarisation; SH2 domain titrated into 5-FAM-labelled peptide (20 nM CD28, YSLV, pYSLV; 40 nM YSLM, pYSLM), 298 K, 96-well plates, single site binding isotherm
Details in all cases: both partners purified
p85α cSH2 (614–720) = molecular target: T2, p85α cSH2 (614–720) (human, UniProt P27986 614-720)
T2 construct: PI3K regulatory subunit p85α, human, C-terminal SH2 domain, residues 614-720; also called cSH2 domain of p85α; source: E. coli, purified (glutathione-agarose, HRV 3C cleavage, S75 size exclusion)
T2 sequence (P27986 614-720): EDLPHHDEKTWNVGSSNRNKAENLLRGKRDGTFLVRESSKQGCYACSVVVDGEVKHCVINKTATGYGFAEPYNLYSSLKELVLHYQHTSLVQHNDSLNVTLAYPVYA

p85α nSH2 (325–430) = molecular target: T3, p85α nSH2 (325–430) (human, UniProt P27986 325-430)
T3 construct: PI3K regulatory subunit p85α, human, N-terminal SH2 domain, residues 325-430; also called nSH2 domain of p85α; WT nSH2 domain of p85α; source: E. coli, purified (glutathione-agarose, HRV 3C cleavage, S75 size exclusion)
T3 sequence (P27986 325-430): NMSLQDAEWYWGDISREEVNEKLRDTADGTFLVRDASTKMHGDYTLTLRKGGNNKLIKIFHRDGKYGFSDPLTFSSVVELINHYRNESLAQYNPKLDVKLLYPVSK

p85β nSH2 (312–425) = molecular target: T4, p85β nSH2 (312–425) (mouse, UniProt O08908 312-425)
T4 construct: PI3K regulatory subunit p85β, mouse, N-terminal SH2 domain, residues 312-425; also called nSH2 domain of p85β; WT nSH2 domain of p85β; source: E. coli, purified (Ni-NTA, HRV 3C cleavage, size exclusion); not shown: His6, N-terminal, cleaved; MBP, N-terminal, cleaved
T4 sequence (O08908 312-425): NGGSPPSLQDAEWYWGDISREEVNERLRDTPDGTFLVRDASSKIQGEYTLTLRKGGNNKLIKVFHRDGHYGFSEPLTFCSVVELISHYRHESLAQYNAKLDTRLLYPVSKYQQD

p85α nSH2 R358M = molecular target: T5, p85α nSH2 R358M (human, UniProt P27986 325-430, R358M)
T5 construct: PI3K regulatory subunit p85α, human, N-terminal SH2 domain, residues 325-430, with R358M; also called R358M variant; R358M SH2–null mutant; source: E. coli, purified
T5 sequence (P27986 325-430 R358M): as the sequence (P27986 325-430) above, with R34M counted along it

p85β cSH2 (603–712) = molecular target: T1, p85β cSH2 (603–712)

Binder | Kd (p85α cSH2 (614–720)) | Kd (p85α nSH2 (325–430)) | Kd (p85β nSH2 (312–425)) | Kd (p85α nSH2 R358M) | Kd (p85β cSH2 (603–712))
B1 | 84000 nM | 2400 nM | 9000 nM | – | –
B2 | 656 nM | 82 nM | 52 nM | 2900 nM | –
B3 | 43 nM | – | – | – | 100 nM
